These results are taken from patent US11266715B2, “C3A receptor agonists for use against ischemic brain injury, stroke, traumatic brain injury, spinal cord injury and neurodegenerative disorders” (priority 2016, dated 2022).

A short description of data set [1]: Body temperature monitoring for systemic anaphylactic response after intranasal C3a. Format: in vivo, mouse. The procedure:
Purified human C3a peptide (Complement Technologies) was diluted in sterile phosphate buffered saline (PBS) to a concentration of 200 nM and a total of 20 μl (10 μl/nostril; corresponding to approximately 1.13 μg/kg body weight) of peptide solution or PBS was given intranasally to awake, hand-restrained mice held in a supine position. Solutions were administered through a pipette tip, drop-wise in 5 μl portions divided by 1 min intervals to allow for absorption. C3a or PBS was given every 24 hours on days 7 to 21 post-stroke for the short-term study or on days 7 to 28 post-stroke for the long-term study. Mice were assigned to C3a or PBS treatment using randomization stratified by body weight to avoid potential confounding effects of body weight on behavioural performance. The investigators carrying out behavioural studies and analysing data were blinded to treatment group. For the assessment of potential systemic anaphylactic response due to intranasal C3a inoculation, body temperature was monitored using a rectal temperature probe (Harvard Apparatus) inserted approximately 4 mm into the rectum of awake mice restrained by the scruff. Baseline temperature was taken before intranasal administration and 5, 15, 30, 45 and 75 min after C3a or PBS administration.

Data set [2] has as its system GAP-43+ puncta. The experiment in a line: GAP-43 immunostaining of dorsal hippocampus after neonatal HI. In kind it is in vivo, mouse. The procedure:
Neuronal nuclei (NeuN), growth associated protein 43 (GAP-43), synapsin I (SYN), vesicular glutamate transporter 1 (VGLUT1), Glial Fibrillary Acidic Protein (GFAP) and ionized calcium-binding adapter molecule 1 (Iba-1) were visualized in the cornu ammonis (CA) and dentate gyrus (DG) of the dorsal hippocampus by immunohistochemistry. Briefly, following heat-induced antigen retrieval with 0.01 M citrate buffer (pH 6, 0.05% Tween 20) for 3×5 min, sections were washed 3×5 min with PBS-T (0.05% Tween 20), non-specific protein binding was reduced by incubation with blocking buffer [4% normal donkey serum (NeuN and Iba-1), 1% bovine serum albumin (GAP-43 and SYN), 3% normal goat serum (VGLUT1), 2% bovine serum albumin (GFAP) in PBS-T] for 1 h at room temperature (RT). Tissue was then incubated with the primary antibody [anti-NeuN biotinylated (1:200, MAB 377B, Millipore, Mass., USA), anti-GAP-43 (1:1000, MAB347, Millipore, Mass., USA), anti-SYN (1:150, SC-7379, Santa Cruz, Calif., USA), anti-VGLUT1 (1:500, AB5905, Millipore, Mass., USA), anti-GFAP (1:200, Z0334, Dako, Stockholm, Sweden), anti-Iba-1 (1:500, 019-19741, Wako, Osaka, Japan)] in blocking buffer overnight at 4° C. One slide per staining batch was incubated only with blocking buffer without primary antibody and used as a negative control. […]
NeuN positive cells, GFAP positive relative area, as well as GAP-43, SYN, and VGLUT1 positive puncta were counted by using MetaMorph software (ver. 7.8.6, Molecular Devices, CA, USA) on confocal images obtained with a 20× (NeuN and GFAP) or 63× (GAP-43, SYN, and VGLUT1) objective (Carl Zeiss LSM 700 Laser Scanning Microscope, Jena, Germany). Iba-1 positive cell somata were counted on bright field images obtained with a 20× objective (Nikon Eclipse 80i). […]

Turning to “C3a: Purified human C3a peptide (Complement Technologies), C3a receptor agonist, amino acid sequence SEQ ID NO: 1”, in data set [1] (after intranasal C3a or PBS), the “duration of the drop in body temperature” value is 5 to 10 min. The “adverse or systemic effects of intranasal C3a” value in data set [1] (even after repeated administration, stroke studies) was “did not observe any adverse or systemic effects”. The “adverse systemic response (hypersensitivity/anaphylaxis) to intranasal C3a” value in data set [1] (judged from body temperature) was “absence of an adverse systemic response”. In data set [1] (rectal probe, awake mice, baseline and 5, 15, 30, 45, 75 min after intranasal C3a, same seen with PBS), the “change in body temperature after intranasal administration” value is given as “very small drop in body temperature”. For the same substance, the “density of GAP-43+ puncta in CA1” value in data set [2] (between groups) is listed as “did not find any differences between groups”. For the same substance, the “expression of GAP-43 in the dentate gyrus” value in data set [2] (mouse, in vivo) is recorded as “No effect”. Besides, the “average GAP-43+ punctum area in CA1 of HI injured hippocampus vs sham mice” value in data set [2] (p<0.05 for PBS) was “PBS treated, but not C3a treated, mice was larger compared with sham mice”.
